Measurements reported in IntAct's records for PubMed 20308429.

Biological target: vinc_mouse Vcl (UniProt Q64727)
Sequence (Q64727 whole entry): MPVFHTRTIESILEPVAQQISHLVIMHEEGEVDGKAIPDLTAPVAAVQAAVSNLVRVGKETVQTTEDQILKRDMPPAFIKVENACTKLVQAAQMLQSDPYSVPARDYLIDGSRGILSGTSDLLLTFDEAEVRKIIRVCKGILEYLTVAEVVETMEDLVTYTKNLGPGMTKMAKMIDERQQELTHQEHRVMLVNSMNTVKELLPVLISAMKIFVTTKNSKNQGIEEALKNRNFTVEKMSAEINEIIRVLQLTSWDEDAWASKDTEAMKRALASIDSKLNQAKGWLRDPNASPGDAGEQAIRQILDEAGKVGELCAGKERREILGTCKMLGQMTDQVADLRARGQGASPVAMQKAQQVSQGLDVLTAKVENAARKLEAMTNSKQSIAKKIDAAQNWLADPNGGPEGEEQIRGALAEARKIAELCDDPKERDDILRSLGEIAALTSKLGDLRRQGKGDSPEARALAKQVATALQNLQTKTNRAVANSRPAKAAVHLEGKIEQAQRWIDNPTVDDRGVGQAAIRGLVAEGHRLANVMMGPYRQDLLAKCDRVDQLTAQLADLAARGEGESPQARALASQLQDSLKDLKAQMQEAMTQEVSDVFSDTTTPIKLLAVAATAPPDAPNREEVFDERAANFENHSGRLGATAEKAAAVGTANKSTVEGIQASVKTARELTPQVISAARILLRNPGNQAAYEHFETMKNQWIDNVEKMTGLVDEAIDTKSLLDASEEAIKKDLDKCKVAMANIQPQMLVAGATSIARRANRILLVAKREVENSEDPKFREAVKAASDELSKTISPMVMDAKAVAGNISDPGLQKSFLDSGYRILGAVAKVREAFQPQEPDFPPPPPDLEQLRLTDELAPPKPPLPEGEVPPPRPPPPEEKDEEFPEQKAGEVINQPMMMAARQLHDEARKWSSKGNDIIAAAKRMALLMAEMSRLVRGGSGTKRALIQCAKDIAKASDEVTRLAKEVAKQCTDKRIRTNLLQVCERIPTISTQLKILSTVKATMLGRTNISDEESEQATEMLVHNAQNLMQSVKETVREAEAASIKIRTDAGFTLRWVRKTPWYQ

Sequence of Paxillin (Gallus gallus (Chicken)), P49024 Y31E;Y118E (P49024 whole entry Y31E/Y118E): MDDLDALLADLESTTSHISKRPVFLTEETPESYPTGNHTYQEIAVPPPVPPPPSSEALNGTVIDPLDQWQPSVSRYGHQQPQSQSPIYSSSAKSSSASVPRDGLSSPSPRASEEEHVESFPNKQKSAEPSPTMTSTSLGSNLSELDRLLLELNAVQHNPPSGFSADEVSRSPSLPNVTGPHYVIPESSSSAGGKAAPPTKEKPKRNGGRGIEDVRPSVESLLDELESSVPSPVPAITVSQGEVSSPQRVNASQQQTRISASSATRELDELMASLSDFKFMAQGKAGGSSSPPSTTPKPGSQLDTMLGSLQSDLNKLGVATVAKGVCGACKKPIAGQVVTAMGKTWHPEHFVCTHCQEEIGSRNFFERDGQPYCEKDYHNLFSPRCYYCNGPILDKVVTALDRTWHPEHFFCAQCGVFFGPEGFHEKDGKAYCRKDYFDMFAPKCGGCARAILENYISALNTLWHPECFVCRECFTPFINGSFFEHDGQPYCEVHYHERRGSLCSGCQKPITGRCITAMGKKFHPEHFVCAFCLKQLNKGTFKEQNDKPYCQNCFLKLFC
Sequence of Paxillin (Gallus gallus (Chicken)), P49024 Y31F;Y118F (P49024 whole entry Y31F/Y118F): as the sequence (P49024 whole entry Y31E/Y118E) above, with E31F, E118F counted along it

effect of a mutation on the interaction | Substance
increasing interaction | Paxillin (Gallus gallus (Chicken)), P49024 Y31E;Y118E
decreasing interaction | Paxillin (Gallus gallus (Chicken)), P49024 Y31F;Y118F
